From patent publication US20200297842A1 (published 2020) come the findings set out here.

Assay [1] addresses T1, human SIRPγ expressed on cells (human, UniProt Q9P1W8 29-387).
T1 construct: Endogenous SIRPγ on Jurkat T-ALL cells and on human CD3+ T cells; also called SIRPγ expressing Jurkat cells; Human T Cells Expressing SIRPγ
Kind of assay: flow cytometry on naive human CD3 T cells expressing SIRPγ. On the procedure:
(§1) Human CD3 T cells, isolated from peripheral blood mononuclear cells (Astarte Biologics) were incubated in 96-well V-bottom plates at 2.5 \ 10⁵ cells/well for 1 h at 37° C., 5% CO₂ with serial dilutions of SIRP mAbs in binding buffer containing 1 mM EDTA (Sigma Aldrich), 1% FBS (Biowest) in PBS (Corning). The cells were then washed and stained for 45 min under the same conditions with donkey anti-mouse IgG fluorescein isothiocyanate (FITC)-linked secondary antibody (Jackson ImmunoResearch Laboratories). The cells were subsequently stained with anti-CD3 conjugated to 3-carboxy-6,8-difluoro-7-hydroxycoumarin (Pacific Blue) fluorophore (BioLegend) for 30 min on ice, washed and analyzed by flow cytometry (Attune, Life Technologies). Binding was assessed as the median FITC fluorescence intensity of CD3⁺ cells, subtracted from CD3⁺ cells stained with the secondary antibody only. All SIRP antibodies were generated in-house except for LSB2.20 (BioLegend). For activated T cells, prior to the binding assay CD3 T cells were activated for 72 h in a 96-well flat-bottom plate coated with 10 μg/ml anti-CD3 (clone UCHT1; BioLegend), at 1×10⁵ cells/well in the presence of 0.5 μg/ml anti-CD28 (clone CD28.2; BioLegend).

Assay [2] addresses T1, human SIRPγ expressed on cells. Kind of assay: flow cytometry on activated human CD3 T cells expressing SIRPγ. On the procedure:
as §1
A general note: In flow cytometry, cells or beads pass a laser one at a time.

For assay [3] the target is unchanged. Kind of assay: flow cytometry on naive human CD3 T cells expressing SIRPγ (second column). On the procedure: as §1
Assay [4] concerns the target T2, human SIRPα expressed on cells (human, UniProt P78324 31-504).
T2 construct: whole, on cells; Endogenous SIRPα of THP-1 cells and of donor-derived macrophages and dendritic cells; also called SIRPα expressing THP-1 cells; cell-expressed SIRPα on dendritic cells and/or macrophages
Kind of assay: flow cytometry on human monocyte-derived dendritic cells; apparent Kd. On the procedure:
(§2) Human CD14⁺ monocytes, isolated from peripheral blood mononuclear cells (Astarte Biologics) were differentiated in vitro for seven days into macrophages or dendritic cells. For macrophage differentiation, monocytes were incubated in AIM-V media (Life Technologies) supplemented with 50 ng/ml M-CSF (Biolegend) for seven days. For dendritic cell differentiation, monocytes were incubated in AIM-V media (Life Technologies) in the presence of 10% human AB serum (Valley Biomedical), 200 ng/ml GM-CSF (Biolegend) and 50 ng/ml IL-4 (Biolegend). The cells were incubated for 1 h at 37° C., 5% CO₂ with serial dilutions of SIRP mAbs in binding buffer containing 1 mM EDTA (Sigma Aldrich) and 1% FBS (Biowest) in PBS (Corning). The cells were then washed and stained for 45 min under the same conditions with donkey anti-mouse IgG fluorescein isothiocyanate (FITC)-linked secondary antibody (Jackson ImmunoResearch Laboratories). The cells were subsequently stained with anti-CD14 or anti-CD11c conjugated to Alexa Fluor 647 fluorophore (Life Technologies and Biolegend, respectively) for 30 min on ice, washed and analyzed by flow cytometry (Attune, Life Technologies). Binding was assessed as the median FITC fluorescence intensity of CD14⁺ or CD11c⁺ cells, subtracted from cells stained with the secondary antibody only.

For assay [5], the target named is T3, Fc tagged human SIRPγ (ACRO # SIG-H5253) (human, UniProt Q9P1W8 29-360).
T3 construct: Bought protein; it includes the transmembrane and cytoplasmic part, which a soluble Fc fusion would not carry; also called Fc tagged human SIRP gamma; recombinant human SIRP gamma; not shown: Fc tag
Kind of assay: ELISA, plate-coated Fc tagged human SIRPγ. The protocol: (§3) Fc tagged human SIRPγ (ACRO # SIG-H5253) is adsorbed to high-binding microtiter plates at a concentration of 1 μg/ml in phosphate buffered saline (PBS) overnight at 4° C. The coating solution is removed, the wells are washed and then blocked with 75% casein in PBS containing 0.5% Tween 20 (PBST) for 60 minutes at room temperature while shaking. Blocking solution is removed, the wells are washed and incubated for 60 minutes at room temperature while shaking with anti-SIRP mAbs diluted in PBST at a starting concentration of 30 μg/ml and reducing the concentration in 3-fold serial dilutions. Wells are washed three times with PBST and incubated for 60 minutes at room temperature while shaking with an HRP labeled donkey anti-mouse or anti-human secondary antibody (Jackson ImmonResearch Laboratories) diluted 1:10,000 in PBST. The wells are washed and then incubated with peroxidase substrate and the absorbance at 450 nm determined. The apparent affinities were calculated using a non-linear fit model (GraphPad Prism).

The target in assay [6] is T1, human SIRPγ expressed on cells. Kind of assay: flow cytometry on Jurkat cells expressing SIRPγ, increasing mAb concentrations (FIG. 4A). The protocol: FIG. 4A-FIG. 4B. Binding of SIRP mAbs to Jurkat T cells Expressing SIRPγ. Binding of SIRP1, SIRP2, SIRP3, SIRP4 and SIRP9 to Jurkat T-ALL cells was determined. Cells were incubated with increasing concentrations of antibody FIG. 4A; or 10 μg/ml of the anti-SIRP antibodies for 1 hr; FIG. 4B. Cells were washed and then incubated with Alexaflour 647-labelled secondary antibody for 1 hr. Cells were washed and antibody binding measured using flow cytometry.
Jurkat cells were incubated for 60 min at 37° C., 5% CO₂ with increasing concentrations of the anti-SIRP mAbs diluted in phosphate buffered saline (PBS), pH 7.2. Cells were then washed with PBS and incubated for an additional hour with Alexa Fluor-647 labeled donkey anti-mouse antibody (Jackson ImmunoResearch Laboratories) in PBS. Cells were washed and binding analyzed using a C6 Accuri Flow Cytometer (Becton Dickinson). Alternatively, the cells were incubated for 1 h at 37° C. with the saturating concentration of 10 μg/ml of SIRP mAbs in binding buffer containing 1 mM EDTA (Sigma Aldrich), 1% FBS (Biowest) in PBS (Corning). The cells were then washed and stained for 45 min under the same conditions with donkey anti-mouse IgG fluorescein isothiocyanate (FITC)-linked secondary antibody (Jackson ImmunoResearch Laboratories). The cells were then washed and analyzed by flow cytometry (Attune, Life Technologies).

Assay [7] has as its target T4, Fc tagged human SIRPα (ACRO # SIG-H5251, genotype variant 1) (human, UniProt P78324 31-370, limits assumed).
T4 construct: Bought protein; also called Fc tagged human SIRP alpha; recombinant human SIRPα; not shown: Fc tag
In words: ELISA, plate-coated Fc tagged human SIRPα; apparent Kd. The protocol:
The binding of anti-SIRP monoclonal antibodies (mAbs) of the present disclosure to SIRP alpha (SIRPα) was determined by solid phase ELISA using an Fc tagged human SIRP alpha. Binding by soluble anti-SIRP antibodies was measured in vitro.
Fc tagged human SIRPα (ACRO # SIG-H5251, genotype variant 1) is adsorbed to high-binding microtiter plates at a concentration of 1 μg/ml diluted in phosphate buffered saline (PBS) overnight at 4° C. The coating solution is removed, the wells are washed and then blocked with 75% casein in PBS containing 0.5% Tween 20 (PBST) for 60 minutes at room temperature while shaking. Blocking solution is removed, the wells are washed and incubated for 60 minutes at room temperature while shaking with either murine or human anti-SIRP mAbs diluted in PBST at a starting concentration of 30 μg/ml and reducing the concentration in 3-fold serial dilutions. Wells are washed three times with PBST and incubated for 60 minutes at room temperature while shaking with an HRP-labeled donkey anti-mouse or anti-human secondary antibody (Jackson ImmunoResearch Laboratories) diluted 1:10,000 in PBST. The wells are washed and then incubated with peroxidase substrate and the absorbance at 450 nm measured. The apparent affinities were calculated using a non-linear fit model (GraphPad Prism).
Background: An ELISA detects its analyte on a solid surface through an enzyme-linked reagent.

Assay [8] deals with T3, Fc tagged human SIRPγ (ACRO # SIG-H5253). In words: ELISA, plate-coated Fc tagged human SIRPγ; apparent Kd. The protocol:
The binding of anti-SIRP antibodies of the present disclosure to SIRP gamma (SIRPγ) was determined by ELISA using an Fc tagged human SIRPγ. Binding by soluble anti-SIRP antibodies was measured in vitro.
as §3

In assay [9] the target is T2, human SIRPα expressed on cells. In words: flow cytometry on human monocyte-derived macrophages; apparent Kd. On the procedure:
as §2

Assay [10] has as its target HIS tagged human SIRPα (ACRO # SIG-H5225) (human) (UniProt P78324). Kind of assay: blocking ELISA: mAb on plate-coated HIS tagged human SIRPα, then Fc tagged human CD47.
The target of assay [11] is T3, Fc tagged human SIRPγ (ACRO # SIG-H5253). In words: blocking ELISA: mAb with human SIRPγ (ACRO # SIG-H5253) on plate-coated HIS tagged human CD47. The protocol:
HIS tagged human CD47 (ACRO # CD7-H5227) is adsorbed to high-binding microtiter plates at a concentration of 2 μg/ml diluted in PBS overnight at 4° C. The coating solution is removed, the wells are washed and then blocked with 75% casein in PBS containing 0.5% Tween 20 (PBST) for 60 minutes at room temperature while shaking. Blocking solution is removed, the wells are washed and incubated for 60 minutes at room temperature while shaking with anti-SIRP mAbs diluted in PBST at a starting concentration of 30 μg/ml and reducing the concentration in 3 fold serial dilutions and 0.5 μg/ml of human SIRPγ (ACRO # SIG-H5253). Wells are washed three times with PBST and incubated for 60 minutes at room temperature while shaking with an HRP labeled donkey anti-mouse or anti-human secondary antibody (Jackson ImmunoResearch Laboratories) diluted 1:20,000 in PBST. The wells are washed and then incubated with peroxidase substrate and the absorbance at 450 nm determined. The IC₅₀ was calculated using a non-linear fit model (GraphPad Prism).

T1 sequence (Q9P1W8 29-387): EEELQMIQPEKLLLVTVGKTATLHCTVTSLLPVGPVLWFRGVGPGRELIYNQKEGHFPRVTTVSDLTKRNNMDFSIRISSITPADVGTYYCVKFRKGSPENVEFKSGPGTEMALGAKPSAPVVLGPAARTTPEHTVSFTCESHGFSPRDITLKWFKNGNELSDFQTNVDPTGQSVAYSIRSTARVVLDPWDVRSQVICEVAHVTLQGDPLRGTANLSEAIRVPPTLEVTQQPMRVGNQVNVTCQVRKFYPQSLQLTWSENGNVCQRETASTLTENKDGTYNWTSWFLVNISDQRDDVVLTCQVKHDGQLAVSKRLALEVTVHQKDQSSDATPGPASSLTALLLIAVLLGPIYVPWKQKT
T3 sequence (Q9P1W8 29-360 limits assumed): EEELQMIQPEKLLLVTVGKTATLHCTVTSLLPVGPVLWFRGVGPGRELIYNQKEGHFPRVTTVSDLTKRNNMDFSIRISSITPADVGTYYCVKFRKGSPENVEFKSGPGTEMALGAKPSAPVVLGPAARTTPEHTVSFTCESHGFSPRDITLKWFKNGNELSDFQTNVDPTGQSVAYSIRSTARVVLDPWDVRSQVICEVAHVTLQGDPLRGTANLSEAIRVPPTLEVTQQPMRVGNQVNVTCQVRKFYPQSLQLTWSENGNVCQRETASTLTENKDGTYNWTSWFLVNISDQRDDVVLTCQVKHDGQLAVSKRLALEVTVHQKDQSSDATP
T2 sequence (P78324 31-504): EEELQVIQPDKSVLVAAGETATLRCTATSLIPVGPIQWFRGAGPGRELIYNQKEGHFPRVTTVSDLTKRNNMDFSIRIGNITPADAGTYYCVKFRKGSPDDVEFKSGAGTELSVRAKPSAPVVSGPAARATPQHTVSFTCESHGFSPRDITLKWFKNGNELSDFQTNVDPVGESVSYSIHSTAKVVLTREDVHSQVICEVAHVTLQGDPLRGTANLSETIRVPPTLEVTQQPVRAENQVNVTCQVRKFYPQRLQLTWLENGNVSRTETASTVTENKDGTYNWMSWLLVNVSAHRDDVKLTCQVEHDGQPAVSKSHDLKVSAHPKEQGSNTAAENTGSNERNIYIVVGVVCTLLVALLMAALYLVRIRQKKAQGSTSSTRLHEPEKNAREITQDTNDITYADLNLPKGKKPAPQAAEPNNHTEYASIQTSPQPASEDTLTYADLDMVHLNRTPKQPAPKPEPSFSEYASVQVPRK
T4 sequence (P78324 31-370 limits assumed, change not shown, form in doubt): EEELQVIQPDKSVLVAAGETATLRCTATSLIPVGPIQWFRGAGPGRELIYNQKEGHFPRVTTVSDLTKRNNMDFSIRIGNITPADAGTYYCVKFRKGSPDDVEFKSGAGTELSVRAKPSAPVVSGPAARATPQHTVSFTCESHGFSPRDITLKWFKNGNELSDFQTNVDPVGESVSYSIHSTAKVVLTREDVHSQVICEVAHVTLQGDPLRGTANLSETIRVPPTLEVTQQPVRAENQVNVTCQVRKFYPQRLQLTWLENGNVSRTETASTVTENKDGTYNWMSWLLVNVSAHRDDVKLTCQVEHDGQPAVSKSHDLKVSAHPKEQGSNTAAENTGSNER
Chain of HIS tagged human SIRPα (ACRO # SIG-H5225) (human) (P78324 31-370): as the sequence (P78324 31-370 limits assumed, change not shown, form in doubt) above

As to LSB2.20 (antibody), the Kd came to 750 pM in assay [1], 950 pM in [2] and 1260 pM in assay [3].

B1: KWAR-23 (antibody, V domains shown)
VH: EVQLQQSGAELVKPGASVKLSCTASGFNIKDYYIHWVQQRTEQGLEWIGRIDPEDGETKYAPKFQDKATITADTSSNTAYLHLSSLTSEDTAVYYCARWGAYWGQGTLVTVSS
VL: QIVLTQSPAIMSASPGEKVTLTCSASSSVSSSYLYWYQQKPGSSPKLWIYSTSNLASGVPARFSGSGSGTSYSLTISSMEAEDAASYFCHQWSSYPRTFGAGTKLELK
As to B1, the Kd in assay [1] is 4.04 pM; in assay [2], 6.22 pM; in [4] it was 23.4 pM; in assay [3] it was 1.59 pM.

B2: SIRP1 (antibody, mouse IgG1, kappa, V domains shown)
VH: QVQLQQSGAELMKPGASVKISCKATGYSFTKYWIEWVKQRPGHGLEWIGEILPGSVITNYNEKFKGKATFTADTSSNTVYMQLSSLTSEDSAVYYCTKWGLYDSDDGVDYWGQGTTLTVSS
VL: ENVLTQSPAIMSASLGEKVTMSCRASSGVNYMYWYQQKSDASPKLLIYYTSILAPGVPARFSGSGSGNSYSLTISSMEGEDAATYYCQQFTSSPYTFGGGTKLEIKR
notes: Hybridoma-derived mouse mAb
Turning to B2, the figures for the binding result in assay [5] and in [6] were “no binding (tested: 30 µg/ml)” and “no binding”, respectively.

B3: SIRP9 (antibody, V domains shown)
VH: EVQLQESGAELVRPGASVKLSCKALGYTFTDYEIHWVKETPVYGLEWIGDIHPGSGGTANNQKFKGKATLTADKSSNTAYMELSSLTSEDSAVYYCTRAVSGYYAMDYWGQGTSVTVSS
VL: DIQMTQSSSSFSGSLGDRLTINCKASEDIYDRVAWYQQKPGNAPRLLISGTASLETGVLSRFSGSGSGKDYTLSINGLQAEDVATYYCQQYWTTPWTFGGGTKLEIK
notes: detected with anti-mouse secondary antibody in the cell assays
For the molecule B3, the Kd worked out at 583 pM in assay [7]; 510 pM in assay [8]; 263 pM in assay [2]; 93.7 pM in assay [9]; 1410 pM in assay [3].

B4: SIRP4 (antibody, V domains shown)
VH: EVQLQQSGPDLVKPGASVKISCKASGYSFTDYFLNWVKQSHGKSLEWIGRINPYNGDSFINQNFRDKATLTVDKSSTTAHMDLLSLTSEDSAIYYCGRGGYDGYFIAYFDYWGQGSLVTVSA
VL: DIKLTQSQSSMYSSLGQRVTITCKASQDINSHLSWFQEKPGKSPKTLIYRANRLADGVPSRFSGSGSGQDYFLTISSLEYEDVGIYYCLQYDEFPYTFGGGTKLEIK
notes: as for B3
In general, IC50 refers to the midpoint of a concentration-inhibition curve. Read a low IC50 as inhibition by little substance. As to B4, the Kd in assay [7] amounted to 161 pM; in assay [8], 274 pM; in assay [9], 20.7 pM; in assay [4] it was 50 pM. Moreover, the IC50 in assay [10] was 710 pM; in assay [11], 440 pM.
